Data published in patent US20040131609A1 (published 2004).

Target: T1, RSV F antigen (respiratory syncytial virus (RSV), UniProt P03420 26-524)
T1 construct: also called F antigen of RSV; RSV F protein
Test: antibody titration ELISA on 500 ng RSV F antigen; qualitative score from titration curves

T1 sequence (P03420 26-524): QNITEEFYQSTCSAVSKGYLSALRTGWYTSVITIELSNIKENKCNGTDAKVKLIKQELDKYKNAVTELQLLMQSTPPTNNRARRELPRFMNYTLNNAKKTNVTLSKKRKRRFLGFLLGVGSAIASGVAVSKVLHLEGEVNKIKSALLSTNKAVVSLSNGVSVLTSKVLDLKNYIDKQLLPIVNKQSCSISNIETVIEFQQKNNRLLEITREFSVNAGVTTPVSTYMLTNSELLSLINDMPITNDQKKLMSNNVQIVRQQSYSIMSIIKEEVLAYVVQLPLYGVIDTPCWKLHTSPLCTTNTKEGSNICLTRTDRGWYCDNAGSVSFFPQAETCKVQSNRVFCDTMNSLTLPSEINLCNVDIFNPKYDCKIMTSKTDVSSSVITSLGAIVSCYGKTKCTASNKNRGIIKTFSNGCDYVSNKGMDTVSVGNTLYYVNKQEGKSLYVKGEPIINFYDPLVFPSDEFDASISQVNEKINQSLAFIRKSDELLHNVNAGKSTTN

Row | Binder | Ag Score
1 | clone 3 (PFFF) (Fab, V domains shown) VH: QVTLRESGPALVKPTQTLTLTCTFSGFSLSTPGMSVGWIRQPPGKALEWLADIWWDDKKDYNPSLKSRLTISKDTSKNQVVLKVTNMDPADTATYYCARSMITNFYFDVWGQGTTVTVSS VL: DIQMTQSPSTLSASVGDRVTITCSASSSVGYMHWYQQKPGKAPKLLIYDTFKLASGVPSRFSGSGSGTEFTLTISSLQPDDFATYYCFQGSFYPFTFGGGTKVEIK | 4 arbitrary score (0-4)
2 | clone 15 (AFSG) (antibody, V domains shown) VH: QVTLRESGPALVKPTQTLTLTCTFSGFSLSTAGMSVGWIRQPPGKALEWLADIWWDDKKDYNPSLKSRLTISKDTSKNQVVLKVTNMDPADTATYYCARSMITNFYFDVWGQGTTVTVSS VL: DIQMTQSPSTLSASVGDRVTITCSASSSVGYMHWYQQKPGKAPKLLIYDTSKLASGVPSRFSGSGSGTEFTLTISSLQPDDFATYYCFQGSGYPFTFGGGTKVEIK | 2.5 arbitrary score (0-4)
3 | clone 7 (PFFG) (antibody, V domains shown) VH: QVTLRESGPALVKPTQTLTLTCTFSGFSLSTPGMSVGWIRQPPGKALEWLADIWWDDKKDYNPSLKSRLTISKDTSKNQVVLKVTNMDPADTATYYCARSMITNFYFDVWGQGTTVTVSS VL: DIQMTQSPSTLSASVGDRVTITCSASSSVGYMHWYQQKPGKAPKLLIYDTFKLASGVPSRFSGSGSGTEFTLTISSLQPDDFATYYCFQGSGYPFTFGGGTKVEIK | 3 arbitrary score (0-4)
4 | clone 19 (SFSW) (antibody, V domains shown) VH: QVTLRESGPALVKPTQTLTLTCTFSGFSLSTSGMSVGWIRQPPGKALEWLADIWWDDKKDYNPSLKSRLTISKDTSKNQVVLKVTNMDPADTATYYCARSMITNFYFDVWGQGTTVTVSS VL: DIQMTQSPSTLSASVGDRVTITCSASSSVGYMHWYQQKPGKAPKLLIYDTSKLASGVPSRFSGSGSGTEFTLTISSLQPDDFATYYCFQGSWYPFTFGGGTKVEIK | 2 arbitrary score (0-4)
5 | clone 12 (PWFF) (antibody, V domains shown) VH: QVTLRESGPALVKPTQTLTLTCTFSGFSLSTPGMSVGWIRQPPGKALEWLADIWWDDKKDYNPSLKSRLTISKDTSKNQVVLKVTNMDPADTATYYCARSMITNWYFDVWGQGTTVTVSS VL: DIQMTQSPSTLSASVGDRVTITCSASSSVGYMHWYQQKPGKAPKLLIYDTFKLASGVPSRFSGSGSGTEFTLTISSLQPDDFATYYCFQGSFYPFTFGGGTKVEIK | 2.5 arbitrary score (0-4)
6 | clone 4 (PFFY) (antibody, V domains shown) VH: QVTLRESGPALVKPTQTLTLTCTFSGFSLSTPGMSVGWIRQPPGKALEWLADIWWDDKKDYNPSLKSRLTISKDTSKNQVVLKVTNMDPADTATYYCARSMITNFYFDVWGQGTTVTVSS VL: DIQMTQSPSTLSASVGDRVTITCSASSSVGYMHWYQQKPGKAPKLLIYDTFKLASGVPSRFSGSGSGTEFTLTISSLQPDDFATYYCFQGSYYPFTFGGGTKVEIK | 3.5 arbitrary score (0-4)
7 | clone 11 (PWFW) (antibody, V domains shown) VH: QVTLRESGPALVKPTQTLTLTCTFSGFSLSTPGMSVGWIRQPPGKALEWLADIWWDDKKDYNPSLKSRLTISKDTSKNQVVLKVTNMDPADTATYYCARSMITNWYFDVWGQGTTVTVSS VL: DIQMTQSPSTLSASVGDRVTITCSASSSVGYMHWYQQKPGKAPKLLIYDTFKLASGVPSRFSGSGSGTEFTLTISSLQPDDFATYYCFQGSWYPFTFGGGTKVEIK | 3 arbitrary score (0-4)
8 | clone 16 (PFSG) (antibody, V domains shown) VH: QVTLRESGPALVKPTQTLTLTCTFSGFSLSTPGMSVGWIRQPPGKALEWLADIWWDDKKDYNPSLKSRLTISKDTSKNQVVLKVTNMDPADTATYYCARSMITNFYFDVWGQGTTVTVSS VL: DIQMTQSPSTLSASVGDRVTITCSASSSVGYMHWYQQKPGKAPKLLIYDTSKLASGVPSRFSGSGSGTEFTLTISSLQPDDFATYYCFQGSGYPFTFGGGTKVEIK | 2 arbitrary score (0-4)
9 | clone 10 (PFSF) (antibody, V domains shown) VH: QVTLRESGPALVKPTQTLTLTCTFSGFSLSTPGMSVGWIRQPPGKALEWLADIWWDDKKDYNPSLKSRLTISKDTSKNQVVLKVTNMDPADTATYYCARSMITNFYFDVWGQGTTVTVSS VL: DIQMTQSPSTLSASVGDRVTITCSASSSVGYMHWYQQKPGKAPKLLIYDTSKLASGVPSRFSGSGSGTEFTLTISSLQPDDFATYYCFQGSFYPFTFGGGTKVEIK | 3 arbitrary score (0-4)
10 | clone 1 (AFSF) (Fab, V domains shown) VH: QVTLRESGPALVKPTQTLTLTCTFSGFSLSTAGMSVGWIRQPPGKALEWLADIWWDDKKDYNPSLKSRLTISKDTSKNQVVLKVTNMDPADTATYYCARSMITNFYFDVWGQGTTVTVSS VL: DIQMTQSPSTLSASVGDRVTITCSASSSVGYMHWYQQKPGKAPKLLIYDTSKLASGVPSRFSGSGSGTEFTLTISSLQPDDFATYYCFQGSFYPFTFGGGTKVEIK | 4 arbitrary score (0-4)
11 | clone 13 (SFFF) (antibody, V domains shown) VH: QVTLRESGPALVKPTQTLTLTCTFSGFSLSTSGMSVGWIRQPPGKALEWLADIWWDDKKDYNPSLKSRLTISKDTSKNQVVLKVTNMDPADTATYYCARSMITNFYFDVWGQGTTVTVSS VL: DIQMTQSPSTLSASVGDRVTITCSASSSVGYMHWYQQKPGKAPKLLIYDTFKLASGVPSRFSGSGSGTEFTLTISSLQPDDFATYYCFQGSFYPFTFGGGTKVEIK | 2.5 arbitrary score (0-4)
12 | clone 20 (SFSF) (antibody, V domains shown) VH: QVTLRESGPALVKPTQTLTLTCTFSGFSLSTSGMSVGWIRQPPGKALEWLADIWWDDKKDYNPSLKSRLTISKDTSKNQVVLKVTNMDPADTATYYCARSMITNFYFDVWGQGTTVTVSS VL: DIQMTQSPSTLSASVGDRVTITCSASSSVGYMHWYQQKPGKAPKLLIYDTSKLASGVPSRFSGSGSGTEFTLTISSLQPDDFATYYCFQGSFYPFTFGGGTKVEIK | 2 arbitrary score (0-4)
13 | clone 21 (SWYF) (antibody, V domains shown) VH: QVTLRESGPALVKPTQTLTLTCTFSGFSLSTSGMSVGWIRQPPGKALEWLADIWWDDKKDYNPSLKSRLTISKDTSKNQVVLKVTNMDPADTATYYCARSMITNWYFDVWGQGTTVTVSS VL: DIQMTQSPSTLSASVGDRVTITCSASSSVGYMHWYQQKPGKAPKLLIYDTYKLASGVPSRFSGSGSGTEFTLTISSLQPDDFATYYCFQGSFYPFTFGGGTKVEIK | 2 arbitrary score (0-4)
14 | clone 14 (SFFW) (antibody, V domains shown) VH: QVTLRESGPALVKPTQTLTLTCTFSGFSLSTSGMSVGWIRQPPGKALEWLADIWWDDKKDYNPSLKSRLTISKDTSKNQVVLKVTNMDPADTATYYCARSMITNFYFDVWGQGTTVTVSS VL: DIQMTQSPSTLSASVGDRVTITCSASSSVGYMHWYQQKPGKAPKLLIYDTFKLASGVPSRFSGSGSGTEFTLTISSLQPDDFATYYCFQGSWYPFTFGGGTKVEIK | 2.5 arbitrary score (0-4)
15 | clone 6 (PFYF) (antibody, V domains shown) VH: QVTLRESGPALVKPTQTLTLTCTFSGFSLSTPGMSVGWIRQPPGKALEWLADIWWDDKKDYNPSLKSRLTISKDTSKNQVVLKVTNMDPADTATYYCARSMITNFYFDVWGQGTTVTVSS VL: DIQMTQSPSTLSASVGDRVTITCSASSSVGYMHWYQQKPGKAPKLLIYDTYKLASGVPSRFSGSGSGTEFTLTISSLQPDDFATYYCFQGSFYPFTFGGGTKVEIK | 3.5 arbitrary score (0-4)
16 | clone 17 (PWSW) (antibody, V domains shown) VH: QVTLRESGPALVKPTQTLTLTCTFSGFSLSTPGMSVGWIRQPPGKALEWLADIWWDDKKDYNPSLKSRLTISKDTSKNQVVLKVTNMDPADTATYYCARSMITNWYFDVWGQGTTVTVSS VL: DIQMTQSPSTLSASVGDRVTITCSASSSVGYMHWYQQKPGKAPKLLIYDTSKLASGVPSRFSGSGSGTEFTLTISSLQPDDFATYYCFQGSWYPFTFGGGTKVEIK | 2 arbitrary score (0-4)
17 | clone 2 (AFFG) (Fab, V domains shown) VH: QVTLRESGPALVKPTQTLTLTCTFSGFSLSTAGMSVGWIRQPPGKALEWLADIWWDDKKDYNPSLKSRLTISKDTSKNQVVLKVTNMDPADTATYYCARSMITNFYFDVWGQGTTVTVSS VL: DIQMTQSPSTLSASVGDRVTITCSASSSVGYMHWYQQKPGKAPKLLIYDTFKLASGVPSRFSGSGSGTEFTLTISSLQPDDFATYYCFQGSGYPFTFGGGTKVEIK | 4 arbitrary score (0-4)
18 | reference antibody IX-493 (SWSG) (Fab, V domains shown, also called Basic; basic antibody) VH: QVTLRESGPALVKPTQTLTLTCTFSGFSLSTSGMSVGWIRQPPGKALEWLADIWWDDKKDYNPSLKSRLTISKDTSKNQVVLKVTNMDPADTATYYCARSMITNWYFDVWGQGTTVTVSS VL: DIQMTQSPSTLSASVGDRVTITCSASSSVGYMHWYQQKPGKAPKLLIYDTSKLASGVPSRFSGSGSGTEFTLTISSLQPDDFATYYCFQGSGYPFTFGGGTKVEIK | 0.1 arbitrary score (0-4)
19 | clone 18 (SFFG) (antibody, V domains shown) VH: QVTLRESGPALVKPTQTLTLTCTFSGFSLSTSGMSVGWIRQPPGKALEWLADIWWDDKKDYNPSLKSRLTISKDTSKNQVVLKVTNMDPADTATYYCARSMITNFYFDVWGQGTTVTVSS VL: DIQMTQSPSTLSASVGDRVTITCSASSSVGYMHWYQQKPGKAPKLLIYDTFKLASGVPSRFSGSGSGTEFTLTISSLQPDDFATYYCFQGSGYPFTFGGGTKVEIK | 2 arbitrary score (0-4)
20 | clone 9 (PFSW) (antibody, V domains shown) VH: QVTLRESGPALVKPTQTLTLTCTFSGFSLSTPGMSVGWIRQPPGKALEWLADIWWDDKKDYNPSLKSRLTISKDTSKNQVVLKVTNMDPADTATYYCARSMITNFYFDVWGQGTTVTVSS VL: DIQMTQSPSTLSASVGDRVTITCSASSSVGYMHWYQQKPGKAPKLLIYDTSKLASGVPSRFSGSGSGTEFTLTISSLQPDDFATYYCFQGSWYPFTFGGGTKVEIK | 3 arbitrary score (0-4)
21 | clone 5 (PFFW) (antibody, V domains shown) VH: QVTLRESGPALVKPTQTLTLTCTFSGFSLSTPGMSVGWIRQPPGKALEWLADIWWDDKKDYNPSLKSRLTISKDTSKNQVVLKVTNMDPADTATYYCARSMITNFYFDVWGQGTTVTVSS VL: DIQMTQSPSTLSASVGDRVTITCSASSSVGYMHWYQQKPGKAPKLLIYDTFKLASGVPSRFSGSGSGTEFTLTISSLQPDDFATYYCFQGSWYPFTFGGGTKVEIK | 3.5 arbitrary score (0-4)
